The chains are these.
B1: Nb21 WT (VHH)
VHH: QVQLVESGGGLVQAGGSLRLSCAVSGLGAHRVGWFRRAPGKEREFVAAIGANGGNTNYLDSVKGRFTISRDNAKNTIYLQMNSLKPQDTAVYYCAARDIETAEYTYWGQGTQVTVSS
B2: Nb17 (VHH)
VHH: HVQLVESGGGLVQAGGSLRLSCAASGSIFSSNAMSWYRQAPGKQRELVASITSGGNADYADSVKGRFTISRDKNTVYPEMSSLKPADTAVYYCHAVGQEASAYAPRAYWGQGTQVTVS
B3: Nb95 (VHH)
VHH: QVQLVESGGGLVQAGGSLRLSCAASGRTFSSYSMGWFRQAQGKEREFVATINGNGRDTYYTNSVKGRFTISRDDATNTVYLQMNSLKPEDTAIYYCAADKDVYYGYTSFPNEYEYWGQGTQVTVS
B4: humanized Nb21 (hNb21) (VHH)
VHH: QVQLVESGGGLVQPGGSLRLSCAASWFRRAPGKEREFVAYADSVKGRFTISRDNAKNTLYLQMNSLRAEDTAVYYCAAWGQGTLVTVS
B5: Nb64 (VHH)
VHH: QVQLVESGGGLVQAGGSLRLSCAVSGRTFSIAGMGWFRQAPGKDREFLGGITWNDGTTWYADSVKGRFTISRDNAKNMLSLRMNSLKPEDTAVYYCAAGPRLGSTPRAYDYWGQGTQVTVS
B6: Nb34 (VHH)
VHH: DVQLVESGGGLVQAGGSLRLSCAASGFTFSNYVMYWGRQAPGKGREWVSGIDSDGSDTAYASSVKGRFTISRDNAKNTLYLQMNNLKPEDTALYYCVKSKDPYGSPWTRSEFDDYWGQGTQVTVS
B7: Nb9 (VHH)
VHH: HVQLVESGGGLVQTGGSLRLSCAFSGYTFSTFPTAWFRQAPGKEREFVAGIRWNGGSRDYTEYADFVKGRFTISRDNAKNMIYLQMISLKPEDTALYYCAASHGVVDGTSVNGYRYWGQGTQVTVS
B8: Nb105 (VHH)
VHH: HVQLVESGGGLVQAGGSLRLSCAVSGRTFSTYGMAWFRQAPGKERDFVATITRSGETTLYADSVKGRFTISRDNAKNTVYLQMNSLKIEDTAVYYCAVRRDSSWGYSRDLFEYDYWGQGTQVTVS
B9: Nb93 (VHH)
VHH: EVQLVESGGGLVQPGGSLRLSCAASGFTFSSYAMSWVRQAPGKGREWVAGITPGSGTFYADSVKGRFTISRDNAKNTLSLEINSLKPEDTALYYCAKCRQEFSWDFSSRDPDDFDYWGQGTQVTVS

For the first test, the target named is RBD (SARS-CoV-2, UniProt P0DTC2 319-541). The test is described as follows: ELISA.
For the molecule B1, the EC50 is 1.69 nM.

The target of the next test is RBD (SARS-CoV-2 spike) (SARS-CoV-2, UniProt P0DTC2 319-541). The test is described as follows: ELISA.
In the case of B2, the EC50 turned out to be 0.97 nM.

The molecule B3 returned an EC50 of 3.77 nM.

Regarding B4, it took 1.34 nM to reach a half-maximal effect (EC50). On the same count and under the same terms, the same measure for B5: 1.22 nM; for B6: 0.53 nM; for B7: 2.76 nM. On to B8, for which the EC50 was found to be 1.69 nM.

B9: the EC50 stood at 1.13 nM.
